# Results taken from the RNAGym collection of RNA variant scans (doi:10.1073/pnas.2313332121).
# Variants at the floor of the assay were thinned out.
# B1: TPR 5TU (parent)
# chain: GGAUCUUCUCGAUCUAACAAAAAAGACAAAUCUGCCACAAAGCUUGAGAGCAUCUUCGGAUGCAGAGGCGGCAGCCUUCGGUGGCGCGAUAGCGCCAACGUUCUCAACUAUGACACGCAAAACGCGUGCUCCGUUGAAUGGAGUUUAUCAUG
# Variants of: B1
# Test: polymerase ribozyme fitness, log enrichment relative to wild type (log ratio); higher = more active; in vitro selection for triplet polymerase activity
# Procedure, shortened: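 Mutant libraries of both subunits of a heterodimeric triplet polymerase ribozyme were PCR-built, transcribed, and selected once in triplicate, with frozen incubation at −7 °C and capture of gel-excised extended constructs on streptavidin beads before RT-PCR. Illumina sequencing of input and output libraries was filtered to genotypes with ≥10 input reads and ≥1 read per output. Fitness is the logarithm of genotype enrichment over wild-type enrichment, using inverse-variance-weighted replicate averages. The logarithm is base 2.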
row,Variant,polymerase ribozyme fitness (log ratio)
1,C85A A120U,-1.7
2,C85G G92U G136A G141A,-3.06
3,C85G C87U U145A,-2.77
4,C85G A97G A150U,-2.03
5,C85A A89G U146C,-2.83
6,C85G C93G,-3.68
7,C85A U145G,-1.06
8,C85U A121C,-0.139
9,C85A C108U U135A U144C,-4.17
10,C85U A89U G126U U145G,-3.94
11,C85A C95A C125U,-1.39
12,C85G A98G U144G,-0.337
13,G84U A137U C149A,≤ -4.2
14,G84U G136A G141C,-1.29
15,C85A G88U C95G A97C,≤ -4.2
16,C85A C125A A137G,-2.28
17,C85G A122U C123A,-2.3
18,C85G C99U G112U C118U,≤ -4.2
19,C85G C118A U146C,-2.72
20,G84A A106U G141U,-0.79
21,C85U G94A G152C,-3.09

row,Variant,polymerase ribozyme fitness (log ratio)
1,C85G A119U,-3.69
2,G84U G86C C93G A98U A142U,-1.78
3,G84A U104C,-0.421
4,G83U G94U C95A,-1.62
5,C85A G92U C131G G152C,≤ -4.2
6,C85G G141A C149G,≤ -4.2
7,C85G G133U,≤ -4.2
8,G84U A106U,-2.69
9,G84U A106C,-2.1
10,G84A A91U G126U G143U,≤ -4.2
11,G84U A89U U104G U127A,≤ -4.2
12,C85U C105U,-0.279
13,G84A U101A A115U A121G G124A,≤ -4.2
14,C85U G86U C93U U130A A138U,≤ -4.2
15,G83U G126A,-0.669
16,G84U G94A C96A,-3.87
17,C85A A142C,-3.23
18,G84A C132G,-3.59
19,G84U G88A A120C,≤ -4.2
20,C85G U139C G143A,≤ -4.2
21,G84U U104G C125A,-3.09

row,Variant,polymerase ribozyme fitness (log ratio)
1,G84A C123G,-0.679
2,G84A C123U,-0.156
3,G84A A97G,-2.34
4,G84A A97U,-1.12
5,G84U C129U,-1.42
6,C85A U148A,-3.51
7,C85A U148C,-2.22
8,C85A G133U,≤ -4.2
9,G84A A150C,-3
10,G84A A150G,-0.63
11,C85G U144A A150U,-3.7
12,C85U G88A A98U,-3.79
13,G84C A121U A122C,-1.63
14,C85G U90A C114A,≤ -4.2
15,C85G C99G C116G G136U,≤ -4.2
16,G84A A98C C105G U148C,-3.35
17,C85A C118A,-0.973
18,G84A G143U,-2.51
19,G84A C95G G141C,-0.311
20,C85U C87U U144G,0.338
21,C85A G117A A138G,-4.18

row,Variant,polymerase ribozyme fitness (log ratio)
1,C85U C87G C95G C131A U134G A147U,≤ -4.2
2,G84U C93A U101C A107G G133U G141C,≤ -4.2
3,G84A C95G,-0.784
4,G84A C95A,-0.531
5,C85A A138G,-3.24
6,G84A U145A,0.189
7,G84A U145C,-0.153
8,G84U C131G,-3.96
9,G84A C118U G141A,0.213
10,C85U C105U A106C U135C G141A,-3.94
11,C85A U134C,-0.169
12,C85A U134G,-3.6
13,C85U A142G,-1.38
14,C85U A89G,-2.67
15,C85U A121U C132A U134A,-4.16
16,G84A C85A G86A G92U U101C,≤ -4.2
17,G84C G117C,-1.73
18,G84U A115U,-3.4
19,C85A G117C,-1.3
20,C85A G117A,-1.76
21,G84A U146A,-0.719
